Experimental data published in patent US6641994B2, “Methods of identifying anti-viral agents” (Pharmacia & Upjohn Company, priority 1999, dated 2003).

B1: GST-16E7: HPV16 E7 protein expressed as a glutathione-S-transferase (GST) fusion protein (protein)
chain: MHGDTPTLHEYMLDLQPETTDLYCYEQLNDSSEEEDEIDGPAGQAEPDRAHYNIVTFCCKCDSTLRLCVQSTHVDIRTLEDLLMGTLGIVCPICSQKP
modifications: left off: a dimerising Fc or GST

What was measured:
HA-CDK2 = molecular target: T1, HA-CDK2 (Homo sapiens, UniProt P24941); format: binding
T1 construct: made in house; host or cells: High Five insect cells, baculovirus

cyclin A/CDK2 = molecular target: T2, cyclin A/CDK2 (Homo sapiens, UniProt P20248+P24941); format: biochemical
T2 construct: hemagglutinin (HA); made in house; host or cells: Sf9 or High Five insect cells, baculovirus co-infection

GST-cyclinA = molecular target: T3, GST-cyclinA (Homo sapiens, UniProt P20248); format: binding; settings: purified HPV16E7 4 μg; SDS-PAGE and immunoblotting
T3 construct: made in house; host or cells: High Five insect cells, baculovirus

CDK2 [1] = test: Effect of E7 on p21/p27 inhibition of CDK2 kinase activity; format: biochemical
Protocol: Histone H1 was chosen as the substrate in the kinase assays since pRb, a physiological CDK2 substrate, is known to bind E7 and could interfere with the assay.
For some assays, HEK293 cell lysate (100 μg total protein, prepared as described above) was preincubated with purified GST-31E7 protein in PBS in the presence of p13 agarose beads (Calbiochem) at 4° C. for one hour, and subsequently incubated with purified His-p27 for 30 min at 4° C. Preincubation was carried out to permit protein complex formation, while p13 agarose beads bind cyclin-dependent kinase complexes to facilitate purification [Dreatta, et al., Cell 56:829-838 (1989)]. After collection and washing four times with PBS, the beads were washed two additional times with KIP buffer containing 50 mM Tris-Cl, pH 7.5, 10 mM MgCl2, 5 mM EGTA, 2 mM DTT, and 10 μM ATP. […] Phosphorylated proteins were analyzed by SDS-PAGE followed by autoradiography and PhosphorImager® analysis.
In other assays, purified cyclin A- or cyclin E-complexed CDK2 was included. […] Kinase activity was measured following addition of 1 μl of 2 mCi/ml [γ-^32P] […] The reaction was stopped by adding SDS sample buffer, and phosphorylated proteins were analyzed by SDS-PAGE followed by autoradiography and PhosphorImager® analysis.

CDK2 [2] = molecular target: T4, CDK2 (Homo sapiens, UniProt P20248+P24941); format: biochemical
T4 construct: hemagglutinin (HA); made in house; host or cells: Sf9 or High Five insect cells, baculovirus co-infection

CDK5 complexed with p25 = CDK5 complexed with p25 (Homo sapiens, UniProt Q00535); test: Kinase assay CDK5/p25, histone H1 phosphorylation; format: biochemical; settings: over controls
MAP kinase 1 = test: Kinase assay MAP kinase 1; format: biochemical
Protocol: (§1) In an attempt to determine if the E7 effects on kinase activity were specific for members of the cyclin-dependent kinase family, various kinase/substrate combinations were examined for enhanced activity in the presence of E7.
(§2) When HPV16-E7 was added to either cyclinA/CDK2 or cyclinE/CDK2 using histoneH1 as the substrate, a large increase (26-fold and 13-fold) over controls was noted as described above. When the retinoblastoma (pRb) protein was used as a substrate for cyclinE/CDK2 a 1.9-fold increase over background was noted.

cyclin E/CDK2 = molecular target: T5, cyclin E/CDK2 (Homo sapiens, UniProt P24941); format: biochemical
T5 construct: hemagglutinin (HA); made in house; host or cells: Sf9 or High Five insect cells, baculovirus co-infection

CDC2/cyclinB = CDC2/cyclinB (Homo sapiens, UniProt P06493); test: Kinase assay CDC2/cyclinB; format: biochemical
Protocol: as §1, §2

T2 sequence (P20248 whole entry, one chain of several): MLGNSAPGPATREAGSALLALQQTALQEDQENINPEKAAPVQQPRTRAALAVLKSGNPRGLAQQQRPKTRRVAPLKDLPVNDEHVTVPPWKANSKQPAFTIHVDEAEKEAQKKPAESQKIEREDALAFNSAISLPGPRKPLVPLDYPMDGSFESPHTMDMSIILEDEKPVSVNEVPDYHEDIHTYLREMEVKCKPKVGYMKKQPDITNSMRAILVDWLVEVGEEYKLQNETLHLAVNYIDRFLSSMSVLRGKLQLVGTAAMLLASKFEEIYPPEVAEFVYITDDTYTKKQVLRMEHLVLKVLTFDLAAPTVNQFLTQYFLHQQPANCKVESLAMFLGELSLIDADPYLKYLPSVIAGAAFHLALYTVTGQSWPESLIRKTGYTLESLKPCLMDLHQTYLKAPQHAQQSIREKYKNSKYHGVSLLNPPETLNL
T4 sequence (P20248 whole entry, one chain of several): as above
CDK5 complexed with p25, sequence (Q00535 whole entry): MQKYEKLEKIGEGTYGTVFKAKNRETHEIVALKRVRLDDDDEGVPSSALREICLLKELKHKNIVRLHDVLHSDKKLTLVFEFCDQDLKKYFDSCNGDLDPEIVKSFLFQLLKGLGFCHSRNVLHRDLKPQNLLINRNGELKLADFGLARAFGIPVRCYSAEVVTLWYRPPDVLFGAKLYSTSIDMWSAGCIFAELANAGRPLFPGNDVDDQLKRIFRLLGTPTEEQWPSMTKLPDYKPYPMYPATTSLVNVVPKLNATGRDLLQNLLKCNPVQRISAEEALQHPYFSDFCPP
CDK5 complexed with p25, sequence (Q15078 99-307 partner limits assumed): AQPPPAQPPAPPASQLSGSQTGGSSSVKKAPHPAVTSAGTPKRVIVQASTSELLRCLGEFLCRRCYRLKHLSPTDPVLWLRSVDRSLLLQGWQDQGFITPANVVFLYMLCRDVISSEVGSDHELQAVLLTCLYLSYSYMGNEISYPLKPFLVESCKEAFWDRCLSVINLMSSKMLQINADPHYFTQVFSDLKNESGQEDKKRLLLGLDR
CDC2/cyclinB, sequence (P06493 whole entry, species assumed): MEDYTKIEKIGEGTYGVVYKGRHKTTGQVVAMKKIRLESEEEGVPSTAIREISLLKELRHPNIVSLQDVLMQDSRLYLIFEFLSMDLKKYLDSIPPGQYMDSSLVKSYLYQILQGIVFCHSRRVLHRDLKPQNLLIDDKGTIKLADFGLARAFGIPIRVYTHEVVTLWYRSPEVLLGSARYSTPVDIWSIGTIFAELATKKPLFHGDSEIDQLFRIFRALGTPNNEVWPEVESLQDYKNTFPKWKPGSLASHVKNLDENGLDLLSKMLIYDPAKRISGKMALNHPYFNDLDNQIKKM
CDC2/cyclinB, sequence (P14635 whole entry partner, species assumed): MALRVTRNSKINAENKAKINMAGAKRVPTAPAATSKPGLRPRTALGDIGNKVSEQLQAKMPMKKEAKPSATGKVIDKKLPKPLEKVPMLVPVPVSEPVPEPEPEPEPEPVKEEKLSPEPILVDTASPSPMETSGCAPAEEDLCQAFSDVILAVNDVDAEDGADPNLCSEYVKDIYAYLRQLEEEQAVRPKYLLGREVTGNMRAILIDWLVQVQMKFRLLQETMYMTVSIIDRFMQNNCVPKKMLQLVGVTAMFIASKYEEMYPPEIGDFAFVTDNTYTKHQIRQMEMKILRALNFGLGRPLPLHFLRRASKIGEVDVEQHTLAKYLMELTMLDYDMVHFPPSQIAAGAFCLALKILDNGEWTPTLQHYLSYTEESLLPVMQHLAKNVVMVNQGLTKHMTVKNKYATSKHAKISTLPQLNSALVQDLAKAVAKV
T3 sequence (P20248 whole entry): as the sequence (P20248 whole entry, one chain of several) above

| Molecule | binding to beads with immobilized HA-CDK2 (HA-CDK2) | phosphorylation of HPV E2 by CDK2/cyclinA (cyclin A/CDK2) | binding to beads containing GST-cyclinA (GST-cyclinA) | effect on p21- and p27-dependent inhibition of cyclin E/CDK2 activity (CDK2 [1]; histone H1 substrate) | effect on p27 inhibition of CDK2 activity (CDK2 [1]; purified cyclin E/CDK2 and cyclin A/CDK2, solution kinase assay) | peak stimulatory activity (concentration) (CDK2 [2]) | EC50 (CDK2 [2]; read-out: 50% stimulatory concentration of E7) [nM] | increase in H1 phosphorylation by CDK5 complexed with p25 (CDK5 complexed with p25) [fold] | effect on cyclin A/CDK2 histone H1 kinase activity (cyclin A/CDK2) | Km (cyclin A/CDK2; read-out: Km for histone H1) [µM] | MAP kinase 1 activity (MAP kinase 1) | increase in cyclinE/CDK2 kinase activity (cyclin E/CDK2) [fold] | increase in pRb kinase activity (cyclin E/CDK2) [fold] | stimulation of cyclin E/CDK2 phosphorylation of MBP-HPV 18 E1 fusion protein (cyclin E/CDK2) [fold] | CDC2/cyclinB activity (CDC2/cyclinB) |
| --- | --- | --- | --- | --- | --- | --- | --- | --- | --- | --- | --- | --- | --- | --- | --- |
| E7: HPV E7 protein or GST-E7 fusion, strain not named at the place; b203 used purified HPV16E7 | no binding | enhanced | binding | little or no effect | little or no effect | approximately 0.29 μM | ~180 |  |  |  |  |  |  |  |  |
| B1 |  |  |  |  |  |  |  | 4.5 | significant effect | 1.1 | unaffected | 13 | 1.9 | 2.3 | unaffected |
